Earlier results in patent US20030175285A1, “Molecule of pharmaceutical interest comprising at its n-terminal a glutamic acid or a glutamine in the form of a physiologically acceptable strong acid” (priority 2000, published 2003).

Conditions: in 2 months, formulated with adjuvant solution of the Montanide ISA 720 type

Sequence: EEGAIVGEI
- spontaneous cyclization to pyroglutamate: 30%
